Test results taken from the nanobody polyreactivity screen of Harvey et al. (2022).

Assay: yeast display, Sf9 membrane polyspecificity reagent, FACS + sequencing; frameworks hold sequencing errors
In short: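 Galactose induction of a Saccharomyces cerevisiae BJ5465 synthetic nanobody display library ran 36–48 hours. The cells were then stained for 1 hour at 4 °C with 10% biotinylated, detergent-solubilized Sf9 membrane reagent, pulled down on streptavidin microbeads and FACS-sorted into low and high (top ~1%) gates on expression and reagent-binding fluorescence. Labels for polyreactivity follow the gate of origin.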

Sequence	polyreactivity (PSR sort gate)
QVQLVESGGGLVQAGGSLRLSCAASGFISGYYTMRWYRQAPGKARELVAVINSGGSTYYADSVKGRFTISRDNAKNTVYLQMNSLKPEDTAVYYCAKLGGKYSRYYYWGQGTQVTVSS	low polyreactivity
QVQLVESGGGLVQAGGSLRLSCAASGYTRFYAMGWYRQAPGTERELVAAISSSGGTTYYADSVKGRFTISRDNAKNTVYLQMNSLKPEDTAVYYCAKYVSYSRTLYDYWGQGTQVTVSS	low polyreactivity
QVQLVESGGGLVQAGGSLRLSCAASGSIFSQYAMGWYRQAPGKERELVAAITYGGGSTYYADSVKGRFTISRDNAKNTVYLQMNSLKPEDTAVYYCAKEFKYWGYPYDYWGQGTQVTVSS	low polyreactivity
QVHLVESGGGLVKAGGSLRLSCGASGSTFERYAMGWYRQAPGKERELVAAINWSGGGTYYADSVKGRFTSSRDNAKNTVYLQMNSLNPEDTAVYYCAGDSGTVVFSLWWYEYYYWGQATQVTVSS	low polyreactivity
QVQLVESGGGLVQAGGSLRLSCAASGRIFNYNAMGWYRQAPGKEREFVATISGRAGRTYYADSVKGRFTISRDNAKNTVYLQMNSLKPEDTAVYYCNAGQWRYPGLYYYWGQGTQVTVSS	high polyreactivity
QVQLVESGGGLVQAGGSLRLSCAASGFTFKRYDMGWYRQAPGKERELVAAISWNGGSTYYADSVKGRFTISRDNAKNTVYLQMNSLKPEDTAVYYCAARFAYPPKRYYWGQGTQVTVSS	high polyreactivity
QVQLVESGGGLVQAGGSLRLSCAASGSIFYGYVMGWYRQAPGKERELVAAISRSGGRTYYADSVKGRFTISRDNAKNTVYLQMNSQKPEDTAVYDCNARQAGTPYKYAYYGRYYWGQGTQVTVSS	high polyreactivity
QVQLVESGGGLVQAGGSLRLSCAASGFIFGRYTMGWYRQAPGKERELVAAITYSGNTYYADSVKGRFTISRDKAKTTVYVQMNSLKPEDTALYYCNAYGANFRAFRNAYKYWGQGTQVTVSS	high polyreactivity
QVQLVESGGGLVQTGGSLRLSCAASGRIFRSYAMGWNRQAPGKERELVAAISGSGGSTYYADSVKGRFTISRDNAKNTVSLQMNSLKPEDTAVYYCTAGKVHPFSTRFYYWGQGTQVTVSS	low polyreactivity
QVQLVESGGGLVQAGGSLRLSCAASGRTFCSYAMGWYRQAPGKERELVAAIRYRGGSTYYADSVKGRFTISRDNAKNTVDLQMNSLKPEDTAVYYCATNTWYYYQRMYYWGQGTQVTVSS	high polyreactivity
QVQLVESGGGLVHAGGSLRLSCAASGFILYSYAMGWYRQAPGKERELVAAINSTGSTYYADSVKGRFTISRDNAKNTVYLQMNSLKPEDTAFYYCATDPWYQTDLSYDTPYYYWGQGKQVTVSS	low polyreactivity
QVQLVESVGGLVQAGGRLRLSCAASGLIFDDYSMGCYRQAPGKEREFVSAISWSDGTTYYADSVKGRFTISRDNAKNTVYLQMNSLKPEDTAVYYCAARLARAGYWRRNYYYWGQGTQVTVSS	high polyreactivity
QVQLVESGGGLVQAGGSLRLSCAASGFTFGWYAMGWYRQAPGKERELVAAISWSGGSTYYADSVKGRFTISRDNAKKTVYLQMNSLKPEDTAVYYCAAYPAYGGDYWGQGTQVTVSS	high polyreactivity
QVQLVESGGGLVQAVGSLRLSCAASGRTFRTYTMGWYRQAPGKERELVAAISRGGSTNYADSLKGRFTISRDNAKNTVYLQMNSLKPEDTAVYYCNAKASFWSPYDYWGQGTQVTVSS	high polyreactivity
QVQLVESGGGLVLAGGSLRLSCAASGSMFGGYAMGWYLQSPGKERELVAAISYRGASTYYADSVKGRFTISRDNAKNTVYLQMNSVKPEDTAVYYCAVAARTRDRVLYGYDYWGQGTQVTVSS	low polyreactivity
QVQLVESGRGLVQAGGSLRLSCAASGRIFGIYAMGWHRQAPGKEMELVATITDGTITNYADSVKGRFTISRDNAKNTVYLQMNSLKPEDTAVYYCAAGTQAHAYVVRPIEMDYWGQGTQVTVSS	low polyreactivity
QVQLVESGGGLVQAGGSLRLSCAASGSTFQFYAMGWYRQAPGKEREFVAGIRSSGGTYYADSVKGRFTISRDNAKNTVYLQMNSLKPEDTAVYYCAAVSSYSPYRRTYYYWGQGTQVTVSS	high polyreactivity
QVQLEESGGGLVQAGGSLRLSCAASGRTFRYNAMGWYRQAPGKERELVVAINWSGGSTYYADSVKGRFTISRDNAKNTVYLQMNSLKPEDTAVYYCAAEPTGWVWYAGYGYYWGQGTRVTVSS	high polyreactivity
QVQLVESGGVLVQAGGSLRLSCAASGTFYPNARGWYRQAPGKDRELVAALSEDGGGTYYADSVKGRFTISRDNAKNTVYLQMNSLKPEDTAVYYCAAEYYDYWYTFDYWGQGTQVTVSS	high polyreactivity
QVQLVESGGGIVQAGGSLRLAVLPPDLPSTLNDMGWSTQAPGKERELVAAITRGGSTNSADSVKGRFTISRDNAKNTVYLQMNILKPEDTAVYYCDKDSLVDHVGGYDYWGQATQVTVSS	low polyreactivity
QVQLVESGGGLVQAGGSLRLSCAASGFTFRKYVMGWYRQAPGKERELVAGISRSGSRTYYADSVKGRFTISRDNAKNTVYLQMNSLKPEDTAVYYCAASRYGKNGKYHYWGQGTQVTVSS	high polyreactivity
QDQLVESGGGLVQAGGSLRLSCAASGSNFRFNAMGWDTQAPGKEREFDAANSRSGGRTYYADSVKGRFRISRDNAKNTVYFQMNCLKPEDTAVFYCNAVWRFPIGRSAPRYDYWGQGTQVTVSS	high polyreactivity

Sequence	polyreactivity (PSR sort gate)
QVQLVESGGGLVQAGGSLRLSCAASGSIFRAYAMGWYRQAPGKEMELVAAISSGVSTNYADSVKGRFTISRDNAKNTVYLQMNSLKPEDTAVYYCNTDKYSESYRSYEYWGQGTQVTVSS	low polyreactivity
QVQLVESGGGLVQAGGSLRLSCAASGQIFSRYAMGWSRQAPGNERELVAAITWSGGRTYYADSVKGRFTISRDNAKYTVYLQMNSLKAEDTAVYYCAATRYPLPEYYWGQGTQGTVSS	high polyreactivity
QVQVVESGGGLDNAGGSLGLSCAASGSIFYYNAMGWYRQAPGKERELVAAISSSGGSTYYADSVKGRFTISRDNAKNTVYLQMNSLKPEDTAVYYCAAKLRHWAHHTKYDYWGQGTQVTVSS	low polyreactivity
QVQLVESGGGLVQAGGSLRLICAASGSILYYYVMGWYRQAPGKERQLVAAITSGGSTYYADSVKGRFTISRDNAKNNVYLQMNSLKPEDTAVYYCAVRPRRQYSPSRWGTGCYWGQGTQVTVSS	high polyreactivity
QVQLVESGGGLVQAGGSLRLSCAASGRIFRYNTMGWYRQAPGKERELVAAITYRGGSTYYADSVKGRFTISRDNAKNTVYLQMNSLKPEDTAVYYCAASPARYWYGGKEYDYWGQGTQVTVSS	high polyreactivity
QVQLVESGGGLVQAGGSLRLSCAASGSTFQLYAMGWDRQAPGKERELVAAITSSAGRTYYADSVKGRFTISRDNAKNTVYLQMNSLKPEDTAVYYCAKDGSFTFWGQGTQVTVSS	low polyreactivity
QVQLVESGGGLVQAGGSLRLSCAASGNTLVKNAMGWYRQAPGNERELVAAISSSGGRTYYADSVKGRFTISRDNAKNTVYLQMNSLKPEDTAVYYCAARYPSGYYYWGQGTQVTVSS	high polyreactivity
QVQLVESGGGLVQAGGSLRLSCAASGFIFTYNAMGWYRQAPGKERELVAAMNSGGITYYADSVKGRFTISRDNAKNPVYLQMNSLKPEDTAVYYCAKRRQIGWITYDYCGQGTQVTVSS	low polyreactivity
QVQLVESGGGLGQAGGSLRLSCAASGYIFPIYAMGWYRQAPGKERELVAAITESGGSTYYADSVKGRFTISRDNAKNTVYLQMNSLKQEDTAVYYCAKEVVKHPRGKLDYWGQGTQVTLSS	low polyreactivity
QVQLVESGGGLVQAGGSLRLSCAASGSIFQGYAMGWYRQAPGKERELVAVITSRVGRTYYADSVKGRFTISRDNAKNTVYLQMNSLKPEDTAVYYCAAKLYGGWYRDFAASGMDYWGQGTQVTVSS	high polyreactivity
QVQLVESGGGLVQAGGSLRLSCAASGFIFFKNAMGWYRQAPGKERELVDVISTSGGRTYYADSVKGRFTISRDYAKNTVYLQMNSLKPEDTAVYYCAAGDQYKTRRNGYGYWGQGTQVTVSS	high polyreactivity
QVQLVESGGGLDQAGGSLRLSCAASGFTFRWYAMGWYRQAPGKERELVAAISRGGNTNYADSVKGRFTISRDNAKNTVYLQMNSLKPEDSAVYYCARNTGPYLGYYHRYYWGHGTQVTVSS	high polyreactivity
QVQLVESGGGLVQAGGSLRLSCAASGYIFRSYVMGWYRQAPGKERELVAAISVSGGRTYYADSVKGRFTMSRDNAKNTVYLQMNSLIPEDTAVYYCAAYLGRRGQEMDYWGQGTQVTVSS	high polyreactivity
QVQLVESGGGLVQAGGSLRLSCAASGRIFPYYAMGWYRQAPGKERELVAAITSGGTTYYADSVKGRFTISRDNAKNTVYLQMNSLKPEDTAVYYCNAVGTPVKISTDRGYWGQGTQVTVSS	low polyreactivity
QVQLVESGGGLVHAGGSLRLSCAASGIIFGSYAMGWYRQAPGKERELVAAITRSGGRTYYADSVKGRFTISRDNAKNTVYLQMNSLKPEDTAVYYCAADRGYRGATGKYDSWGQGTEVTVSS	high polyreactivity
QVQLVESGGGLVQAGGSLRLSCAASGTFGVYAMGWYRQSPGKERELVAVITDSGGTNYADSVKGRFTISRDNAKNTVYLQMNSLKPEDTAVYYCNTDAGDYYGENYWGQGTQVTVSS	low polyreactivity
QVQLVESGGGLVQAGGSLRLSSAASGFILRWYAMGWYRQAPGKERELVAAISWSGGSTYYADSVKGRFTISRDNAKNTVYLQMNSLKPEDTAVYYCNAVNYRNKYDYWGQGTQVTVSS	high polyreactivity
QVQLVETGGGLVQAGGSLRLSCAASGSIFPGNAMGWYRQAPGKERELVAVIDFSGASTYYADSVKGRFTISRDNAKNTVYLQMNSLKPEDTADYWGQGTQVTVSS	low polyreactivity
QDQLVESGGGLVQAGGSLRLSCAASGLIFFFYPMGWYRQAPGKERELVASISGGGITYYADSVKGRFTISRDNAKNTVYLQMNSLKQEDTPVIKNDYWGQGTQVTLSS	low polyreactivity
QVQLVESGGGLVQAGGSLRLSCAASGSSSRRMIMGRYRQAPGKERELVAAISGSGGSTYYADSVKGRFTISRDNAKNTVYLQMNSLKPEDTAVYYCAAVLQSCYGYEYWGQGTQVTVSS	high polyreactivity
QVQLVESGGGLVQAGGSLRLSCAASGSIFEGNSMGWYRQAPGKERELVAAISRRGGRTYYADSVKGRFTISRDNAKKTVFLQMNSLKPEDTAVYYCNALYFRVGRYQTYSDKFDYWGQGTQVTVSS	high polyreactivity
